Experimental data as given in patent publication US20040253623, “Nucleic acid binding proteins” (Gendaq Limited, published 2004).

What was measured:
[1] = target: optimised anti-ras zinc finger peptide (Asn at helix +3 of finger 1) (Artificial Sequence, S21N (finger 1 helix position +3 Ser to Asn; numbering of SEQ 14)); experiment: apparent Kd; phage binding; details: protein: virion; label: biotin
[2] = target: anti-ras lead zinc finger peptide (3 fingers) (Artificial Sequence); experiment: apparent Kd; phage binding; details: protein: virion; label: biotin
Sequence of anti-ras lead zinc finger peptide (3 fingers) (Artificial Sequence) (chain, as listed by the source): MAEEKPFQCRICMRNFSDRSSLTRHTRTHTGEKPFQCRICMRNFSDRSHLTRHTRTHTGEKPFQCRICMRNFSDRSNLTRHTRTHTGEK

Sequence of optimised anti-ras zinc finger peptide (Asn at helix +3 of finger 1) (Artificial Sequence, S21N (finger 1 helix position +3 Ser to Asn; numbering of SEQ 14)) (chain, as listed by the source with the stated changes): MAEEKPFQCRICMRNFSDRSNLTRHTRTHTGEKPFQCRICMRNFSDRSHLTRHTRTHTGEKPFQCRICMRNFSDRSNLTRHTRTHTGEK

B1: EJ mutant (G12V) H-ras DNA, codons 8-16 (dsDNA)
DNA 1: GTGGTGGGCGCCGTCGGTGTGGGCAAG
DNA 2: CTTGCCCACACCGACGGCGCCCACCAC
Kd [1]: 3 nM
Kd [2]: 17 nM
